Laboratory results taken from article PMC12718106.

Experiments:
[1] = target: natural Ara h 1 protein (peanut (Arachis hypogaea)); experiment: native gel or EMSA; native-PAGE of the purified allergen, nondenaturing; oligomeric state from the estimated molecular mass (Fig. S1)
[2] = target: recombinant Ara h 1 protein with N-terminal His-tag (peanut (Arachis hypogaea)); experiment: as above

Row | Substance | stoichiometry N [1] | stoichiometry N [2]
1 | natural Ara h 1 protein (natural protein) | 3 | –
2 | recombinant Ara h 1 protein with N-terminal His-tag (natural protein) | – | 3
